Patent US20240209086A1 (PETMEDIX, published 2024)
Numbering of substitutions follows the chain as printed.

B1: PMX170 (monospecific anti-canine CD3, canine IgG-B effector function deficient Fc) (antibody)
heavy: EVQLVESGGDLVKPGGSLRLSCVASGFTFSSYHMSWVRQAPGKGLQWVAYSNSGGSRTSYADAVKGRFTISRDNAKNTLYLQMSSLRAEDTAVYYCASEGGGGRYGFKDYGMDYWGHGTSLFVSSASTTAPSVFPLAPSCGSTSGSTVALACLVSGYFPEPVTVSWNSGSLTSGVHTFPSVLQSSGLYSLSSMVTVPSSRWPSETFTCNVAHPASKTKVDKPVPKRENGRVPRPPDCPKCPAPESLGGPSVFIFPPKPKDTLLIARTPEVTCVVVDLGREDPEVQISWFVDGKQMQTAKTQPREEQFNGTYRVVSVLPIGHQDWLKGKQFTCKVNHIGLPSPIERTISKARGQAHQPSVYVLPPSREELSKNTVSLTCLIKDFFPPDIDVEWQSNGQQEPESKYRTTPPQLDEDGSYFLYSKLSVDKSRWQRGDTFICAVMHEALHNHYTQKSLSHSPGK
VL: SYVLTQLPSKNVTLKQPAHITCGGDNIGSKSVHWYQQKLGQAPVLIIYYDSSRPTGIPERFSGANSGNTATLTISGALAEDEADYYCQVWDSSAKAWVFGEGTQLTVL
B2: PMX176 (monospecific anti-canine CD3, canine IgG-B effector function deficient Fc) (antibody, V domains shown)
VH: EVQLVESGGDLVKPGGSLRLSCVASGFTFSSYHMSWVRQAPGKGLQWVAYINSAGSTTSYTDAVQGRFTISRDNAKNTLYLQMNSLRAEDTAVYYCASEWIFMPWGQGSLVTVSS
VL: B1 VL with W97R
B3: PMX177 (monospecific anti-canine CD3, canine IgG-B effector function deficient Fc) (antibody, V domains shown)
VH: EVTLQESGPGLVKPSQTLSLTCVVSGGSVTSSFYWNWIRQRPGRGLEWMGYWTGSTNYNPAFQGRISITADTAKNQFSLHLGSMTTDDTAMYYCAREEGSWGRVYFDYWGQGTLVTVSS
VL: B1 VL with A94T, A96T
B4: PMX182 (monospecific anti-canine CD3, canine IgG-B effector function deficient Fc) (antibody)
heavy: EVQLVESGGDLVKPGGSLRLSCVTSGFTFSNYHMNWVRQAPGKGLQWVAYINSGGSSTSYADAVKGRFTISRDNAKNTLYLQMNSLRAEDTAMYYCASDWDYCADDTCEGMGYWGHGTSLFVSSASTTAPSVFPLAPSCGSTSGSTVALACLVSGYFPEPVTVSWNSGSLTSGVHTFPSVLQSSGLYSLSSMVTVPSSRWPSETFTCNVAHPASKTKVDKPVPKRENGRVPRPPDCPKCPAPESLGGPSVFIFPPKPKDTLLIARTPEVTCVVVDLGREDPEVQISWFVDGKQMQTAKTQPREEQFNGTYRVVSVLPIGHQDWLKGKQFTCKVNHIGLPSPIERTISKARGQAHQPSVYVLPPSREELSKNTVSLTCLIKDFFPPDIDVEWQSNGQQEPESKYRTTPPQLDEDGSYFLYSKLSVDKSRWQRGDTFICAVMHEALHNHYTQKSLSHSPGK
VL: B1 VL
B5: PMX183 (monospecific anti-canine CD3, canine IgG-B effector function deficient Fc) (antibody, V domains shown)
VH: ELTLQESGPGLVKPSQTLSLTCVVSGGSVTNSYYWNWIRQRPGRELEWMGYWTGGTKYNPAFQGRISISADTAKNQFSLQLTSMTTEDTAVYYCARDRDRRVPHAYGYWGQGTLVTVSS
VL: B1 VL with W97S, E101G, Q104H
B6: PMX179 (monospecific anti-canine CD3, canine IgG-B effector function deficient Fc) (antibody, V domains shown)
VH: ELALQESGPGLVRPSQTLSLTCVVSGGSVTRSYYWNWIRQRPGRGLEWMGYWTGTTIYNPAFQGRISITVDTAKNQFSLHLISMTTEDTAVYYCGREGGSSLGAIAYWGQGTRVTVSS
VL: B1 VL with W97A, E101G, Q104H
B7: PMX171 (monospecific anti-canine CD3, canine IgG-B effector function deficient Fc) (antibody)
heavy: B1 heavy with V23E, S51I, S53N, R57G, S84N, Y95F, G103K, F107Y
VL: B1 VL
B8: PMX174 (monospecific anti-canine CD3, canine IgG-B effector function deficient Fc) (antibody)
heavy: EVQLVESGGDLVKAGVSLRLSCVASGFTFSNYHLNWVRQAPGKGPQWVASINSGGSSTYYADAVKGRFTISRDNAKNTLYLQMNSLRAEDTAVYYCASDHGSYRGMDYWGHGTSLFVSSASTTAPSVFPLAPSCGSTSGSTVALACLVSGYFPEPVTVSWNSGSLTSGVHTFPSVLQSSGLYSLSSMVTVPSSRWPSETFTCNVAHPASKTKVDKPVPKRENGRVPRPPDCPKCPAPESLGGPSVFIFPPKPKDTLLIARTPEVTCVVVDLGREDPEVQISWFVDGKQMQTAKTQPREEQFNGTYRVVSVLPIGHQDWLKGKQFTCKVNHIGLPSPIERTISKARGQAHQPSVYVLPPSREELSKNTVSLTCLIKDFFPPDIDVEWQSNGQQEPESKYRTTPPQLDEDGSYFLYSKLSVDKSRWQRGDTFICAVMHEALHNHYTQKSLSHSPGK
VL: SYVLTQLPSKNVTLKQPAHITCGGDNIGSKSVHWYQQKLGQAPVLIIYYDSSRPTGIPERFSGANSGNTATLTISGALAEDEADYYCQVWDSSAKAVFGGGTHLTVL
B9: PMX175 (monospecific anti-canine CD3, canine IgG-B effector function deficient Fc) (antibody, V domains shown)
VH: ELTLQESGPGLVKPSQTLSLTCVVSGGSVTSTYYWNWIRQRPGRGLEWMGYWTGTTNYNPAFQGRISITADTAKNQFSLQLSSMTTEDTAVYYCAREDLVTVGSGAFNYWGQGTLVTVSS
VL: B8 VL with K95T, A96W, G100E, H103Q
B10: PMX180 (monospecific anti-canine CD3, canine IgG-B effector function deficient Fc) (antibody, V domains shown)
VH: ELTLQESGPGLVKPSQTLSLTCVVSGGSVTSNYYWNWIRQRPGRGLEWMGYWTGSTNYNPAFQGRISITADTAKKQFSLQLRSMTIEDTAVYYCARRGIPIFFDYWGQGTLVTVSS
VL: SYVLTQLPSKNVTLKQPAHITCGGDNIGSKSVHWYQQKLGQAPVLIIYYDSSRPTGIPERFSGANSGNTATLTISGALAEDEADYYCQVWDSSASVFGGGTHLTVL
B11: PMX181 (monospecific anti-canine CD3, canine IgG-B effector function deficient Fc) (antibody, V domains shown)
VH: ELTLQESGPGLVKPSQTLSLTCIVSGGSVTNNYYWTWIRQRPGRGLEWMGYWTGFTNYNPAFQGRISIIANTAKKQLSLQLSSLTTEDTAVYYCARRAIPTYFDYWGQGTLVTVSS
VL: B10 VL with K30R

target: canine CD3 on canine T cells (canine PBMC) (canine, UniProt P27597 22-202); assay: cell-based or functional assay
Sequence (P27597 22-202 limits assumed, chain 1 of 3): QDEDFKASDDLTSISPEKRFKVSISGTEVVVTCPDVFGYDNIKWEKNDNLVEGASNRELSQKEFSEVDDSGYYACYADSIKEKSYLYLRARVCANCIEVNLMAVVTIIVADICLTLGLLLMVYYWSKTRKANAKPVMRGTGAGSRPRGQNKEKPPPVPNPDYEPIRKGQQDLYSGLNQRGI
Sequence (chain, as listed by the source limits assumed, chain 2 of 3): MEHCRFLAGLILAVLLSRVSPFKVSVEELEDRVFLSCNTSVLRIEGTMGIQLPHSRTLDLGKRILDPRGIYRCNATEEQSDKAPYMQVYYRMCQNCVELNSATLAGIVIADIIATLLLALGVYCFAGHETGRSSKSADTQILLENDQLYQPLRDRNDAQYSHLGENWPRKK
Sequence (chain, as listed by the source limits assumed, chain 3 of 3): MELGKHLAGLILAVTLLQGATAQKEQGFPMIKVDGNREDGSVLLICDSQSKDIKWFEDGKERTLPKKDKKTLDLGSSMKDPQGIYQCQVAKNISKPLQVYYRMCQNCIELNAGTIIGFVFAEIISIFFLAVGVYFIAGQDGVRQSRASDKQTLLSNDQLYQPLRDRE

Binder | CD25 Activation, Day 6, IS | CD25 Activation, Day 6, PB | CD25 Activation, Day 9, IS | CD25 Activation, Day 9, PB | IFNy Concentration pg/ml, Day 6, IS [pg/mL] | IFNy Concentration pg/ml, Day 9, IS [pg/mL] | IFNy Concentration pg/ml, Day 9, PB [pg/mL] | Ki67 Proliferation, Day 6, IS | Ki67 Proliferation, Day 6, PB | Ki67 Proliferation, Day 9, IS
B1 | 9.44 | 11.8 | 7.39 | 11.3 | 71.3 | 114 | 282 | 1.99 | 0.27 | 0.79
B2 | 10.3 | 9.61 | 12.3 | 10.1 | 30.3 | 278 | 594 | 0.93 | 1.45 | 2.2
B3 | 8.02 | 12.6 | 13.7 | 18.4 | 28.8 | 763 | 2210 | 1.41 | 1.37 | 3.19
B4 | 7.88 | 5.89 | 14.6 | 21.4 | 50.2 | 1340 | 1470 | 2.01 | 0.7 | 1.72
B5 | 13.3 | 13.6 | 10.1 | 13.3 | 63.7 | 153 | 145 | 1.61 | 0.36 | 1.99
B6 | 8.73 | 22 | 10.9 | 22.9 | 43.4 | 162 | 2750 | 1.27 | 0.48 | 2.06
B7 | 11.9 | 13.7 | 10.4 | 6.22 | 106 | 146 | 277 | 0.98 | 0.57 | 1.91
B8 | 7.37 | 8.61 | 8.21 | 8.48 | 17.4 | 627 | 591 | 0.95 | 0.089 | 1.03
B9 | 14.5 | 8.76 | 10 | 9.46 | 51 | 233 | 706 | 2.03 | 0.59 | 1
B10 | 10.7 | 8.6 | 13.9 | 17 | 55.5 | 318 | 773 | 1.2 | 0.21 | 1.77
B11 | 10.6 | 5.68 | 9.09 | 23.9 | 33.1 | 118 | 1690 | 2.15 | 0.55 | 2.69

same assay, conditions: not given

Binder | Ki67 Proliferation, Day 9, PB
B1 | 0.47
B2 | 0
B3 | 0.47
B4 | 1.55
B5 | 0.48
B6 | 0.31
B7 | 0.52
B8 | 0
B9 | 0.95
B10 | 0.58
B11 | 0.7
